{"source": "patent US20230406885A1", "about": "“CYCLIC PEPTIDES FOR TRAPPING INTERLEUKIN-1 BETA” (MERCK SHARP & DOHME LLC, priority 2022, published 2023)", "binders": {"B1": {"name": "SEQ ID NO: 155 (Example No. 155) (peptide)", "peptide": "cyclo([TyrEtNAc]W[Phe(4-COOH)]G[Pro(trans-4-NH2)][Trp(βS-Me,4-F)]D[dNMeA]G[Bip(4'-COOH)][1Nal]S[dA][hTyr])", "SMILES": "CC(=O)NCCOc1ccc(C[C@@H]2NC(=O)[C@H](CCc3ccc(O)cc3)NC(=O)[C@@H](C)NC(=O)[C@H](CO)NC(=O)[C@H](Cc3cccc4ccccc34)NC(=O)[C@H](Cc3ccc(-c4ccc(C(=O)O)cc4)cc3)NC(=O)CNC(=O)[C@@H](C)N(C)C(=O)[C@H](CC(=O)O)NC(=O)[C@H]([C@@H](C)c3c[nH]c4cccc(F)c34)NC(=O)[C@@H]3C[C@@H](N)CN3C(=O)CNC(=O)[C@H](Cc3ccc(C(=O)O)cc3)NC(=O)[C@H](Cc3c[nH]c4ccccc34)NC2=O)cc1"}, "B2": {"name": "SEQ ID NO: 152 (Example No. 152) (peptide)", "peptide": "cyclo([TyrEtNAc]W[Phe(4-COOH)]G[Pro(trans-4-NH2)][Trp(4-Cl)(βS-Me)]D[dNMeA]G[Bip(4'-COOH)]W[SerOMe][dA][hPhe])", "SMILES": "COC[C@@H]1NC(=O)[C@H](Cc2c[nH]c3ccccc23)NC(=O)[C@H](Cc2ccc(-c3ccc(C(=O)O)cc3)cc2)NC(=O)CNC(=O)[C@@H](C)N(C)C(=O)[C@H](CC(=O)O)NC(=O)[C@H]([C@@H](C)c2c[nH]c3cccc(Cl)c23)NC(=O)[C@@H]2C[C@@H](N)CN2C(=O)CNC(=O)[C@H](Cc2ccc(C(=O)O)cc2)NC(=O)[C@H](Cc2c[nH]c3ccccc23)NC(=O)[C@H](Cc2ccc(OCCNC(C)=O)cc2)NC(=O)[C@H](CCc2ccccc2)NC(=O)[C@@H](C)NC1=O"}, "B3": {"name": "SEQ ID NO: 148 (Example No. 148) (peptide)", "peptide": "cyclo([TyrEtNAc]W[Phe(4-COOH)]G[Pro(trans-4-NH2)][Trp(4-Cl)(βS-Me)]D[dNMeA]G[Bip(4'-COOH)]WL[dA][hTyr])", "SMILES": "CC(=O)NCCOc1ccc(C[C@@H]2NC(=O)[C@H](CCc3ccc(O)cc3)NC(=O)[C@@H](C)NC(=O)[C@H](CC(C)C)NC(=O)[C@H](Cc3c[nH]c4ccccc34)NC(=O)[C@H](Cc3ccc(-c4ccc(C(=O)O)cc4)cc3)NC(=O)CNC(=O)[C@@H](C)N(C)C(=O)[C@H](CC(=O)O)NC(=O)[C@H]([C@@H](C)c3c[nH]c4cccc(Cl)c34)NC(=O)[C@@H]3C[C@@H](N)CN3C(=O)CNC(=O)[C@H](Cc3ccc(C(=O)O)cc3)NC(=O)[C@H](Cc3c[nH]c4ccccc34)NC2=O)cc1"}, "B4": {"name": "SEQ ID NO: 153 (Example No. 153) (peptide)", "peptide": "cyclo([TyrEtNAc]W[Phe(4-COOH)]G[Pro(trans-4-NH2)][Trp(4-Cl)(βS-Me)]D[dNMeA]G[Bip(4'-COOH)]W[SerOMe][dA][hTyr])", "SMILES": "COC[C@@H]1NC(=O)[C@H](Cc2c[nH]c3ccccc23)NC(=O)[C@H](Cc2ccc(-c3ccc(C(=O)O)cc3)cc2)NC(=O)CNC(=O)[C@@H](C)N(C)C(=O)[C@H](CC(=O)O)NC(=O)[C@H]([C@@H](C)c2c[nH]c3cccc(Cl)c23)NC(=O)[C@@H]2C[C@@H](N)CN2C(=O)CNC(=O)[C@H](Cc2ccc(C(=O)O)cc2)NC(=O)[C@H](Cc2c[nH]c3ccccc23)NC(=O)[C@H](Cc2ccc(OCCNC(C)=O)cc2)NC(=O)[C@H](CCc2ccc(O)cc2)NC(=O)[C@@H](C)NC1=O"}, "B5": {"name": "SEQ ID NO: 149 (Example No. 149) (peptide)", "peptide": "cyclo([TyrEtNAc]W[Phe(4-COOH)]G[Pro(trans-4-NH2)][Trp(4-Cl)(βS-Me)]D[dNMeA]G[Bip(4'-COOH)]WL[dDab][hTyr])", "SMILES": "CC(=O)NCCOc1ccc(C[C@@H]2NC(=O)[C@H](CCc3ccc(O)cc3)NC(=O)[C@@H](CCN)NC(=O)[C@H](CC(C)C)NC(=O)[C@H](Cc3c[nH]c4ccccc34)NC(=O)[C@H](Cc3ccc(-c4ccc(C(=O)O)cc4)cc3)NC(=O)CNC(=O)[C@@H](C)N(C)C(=O)[C@H](CC(=O)O)NC(=O)[C@H]([C@@H](C)c3c[nH]c4cccc(Cl)c34)NC(=O)[C@@H]3C[C@@H](N)CN3C(=O)CNC(=O)[C@H](Cc3ccc(C(=O)O)cc3)NC(=O)[C@H](Cc3c[nH]c4ccccc34)NC2=O)cc1"}, "B6": {"name": "SEQ ID NO: 146 (Example No. 146) (peptide)", "peptide": "cyclo([TyrEtNAc]W[Phe(4-COOH)]G[Pro(trans-4-NH2)][Trp(4-Cl)(βS-Me)]D[dNMeA]G[Bip(4'-COOH)]W[Dap(Me2)][dA][hTyr])", "SMILES": "CC(=O)NCCOc1ccc(C[C@@H]2NC(=O)[C@H](CCc3ccc(O)cc3)NC(=O)[C@@H](C)NC(=O)[C@H](CN(C)C)NC(=O)[C@H](Cc3c[nH]c4ccccc34)NC(=O)[C@H](Cc3ccc(-c4ccc(C(=O)O)cc4)cc3)NC(=O)CNC(=O)[C@@H](C)N(C)C(=O)[C@H](CC(=O)O)NC(=O)[C@H]([C@@H](C)c3c[nH]c4cccc(Cl)c34)NC(=O)[C@@H]3C[C@@H](N)CN3C(=O)CNC(=O)[C@H](Cc3ccc(C(=O)O)cc3)NC(=O)[C@H](Cc3c[nH]c4ccccc34)NC2=O)cc1"}, "B7": {"name": "SEQ ID NO: 145 (Example No. 145) (peptide)", "peptide": "cyclo([TyrEtNAc]W[Phe(4-COOH)]G[Pro(trans-4-NH2)][Trp(4-Cl)(βS-Me)]D[dNMeA]G[Bip(4'-COOH)]W[Dap][dA][hTyr])", "SMILES": "CC(=O)NCCOc1ccc(C[C@@H]2NC(=O)[C@H](CCc3ccc(O)cc3)NC(=O)[C@@H](C)NC(=O)[C@H](CN)NC(=O)[C@H](Cc3c[nH]c4ccccc34)NC(=O)[C@H](Cc3ccc(-c4ccc(C(=O)O)cc4)cc3)NC(=O)CNC(=O)[C@@H](C)N(C)C(=O)[C@H](CC(=O)O)NC(=O)[C@H]([C@@H](C)c3c[nH]c4cccc(Cl)c34)NC(=O)[C@@H]3C[C@@H](N)CN3C(=O)CNC(=O)[C@H](Cc3ccc(C(=O)O)cc3)NC(=O)[C@H](Cc3c[nH]c4ccccc34)NC2=O)cc1"}, "B8": {"name": "SEQ ID NO: 151 (Example No. 151) (peptide)", "peptide": "cyclo([TyrEtNAc]W[Phe(4-COOH)]G[Pro(trans-4-NH2)][Trp(4-Cl)(βS-Me)]D[dNMeA]G[Bip(4'-COOH)]WS[dA][hTyr])", "SMILES": "CC(=O)NCCOc1ccc(C[C@@H]2NC(=O)[C@H](CCc3ccc(O)cc3)NC(=O)[C@@H](C)NC(=O)[C@H](CO)NC(=O)[C@H](Cc3c[nH]c4ccccc34)NC(=O)[C@H](Cc3ccc(-c4ccc(C(=O)O)cc4)cc3)NC(=O)CNC(=O)[C@@H](C)N(C)C(=O)[C@H](CC(=O)O)NC(=O)[C@H]([C@@H](C)c3c[nH]c4cccc(Cl)c34)NC(=O)[C@@H]3C[C@@H](N)CN3C(=O)CNC(=O)[C@H](Cc3ccc(C(=O)O)cc3)NC(=O)[C@H](Cc3c[nH]c4ccccc34)NC2=O)cc1"}, "B9": {"name": "SEQ ID NO: 150 (Example No. 150) (peptide)", "peptide": "cyclo([TyrEtNAc]W[Phe(4-COOH)]G[Pro(trans-4-NH2)][Trp(4-Cl)(βS-Me)]D[dNMeA]G[Bip(4'-COOH)]WS[dA][hPhe])", "SMILES": "CC(=O)NCCOc1ccc(C[C@@H]2NC(=O)[C@H](CCc3ccccc3)NC(=O)[C@@H](C)NC(=O)[C@H](CO)NC(=O)[C@H](Cc3c[nH]c4ccccc34)NC(=O)[C@H](Cc3ccc(-c4ccc(C(=O)O)cc4)cc3)NC(=O)CNC(=O)[C@@H](C)N(C)C(=O)[C@H](CC(=O)O)NC(=O)[C@H]([C@@H](C)c3c[nH]c4cccc(Cl)c34)NC(=O)[C@@H]3C[C@@H](N)CN3C(=O)CNC(=O)[C@H](Cc3ccc(C(=O)O)cc3)NC(=O)[C@H](Cc3c[nH]c4ccccc34)NC2=O)cc1"}, "B10": {"name": "SEQ ID NO: 144 (Example No. 144) (peptide)", "peptide": "cyclo([TyrEtNAc]W[Phe(4-COOH)]G[Pro(trans-4-NH2)][Trp(4-Cl)(βS-Me)]D[dNMeA]G[Bip(4'-COOH)]W[Dap][dA][hPhe])", "SMILES": "CC(=O)NCCOc1ccc(C[C@@H]2NC(=O)[C@H](CCc3ccccc3)NC(=O)[C@@H](C)NC(=O)[C@H](CN)NC(=O)[C@H](Cc3c[nH]c4ccccc34)NC(=O)[C@H](Cc3ccc(-c4ccc(C(=O)O)cc4)cc3)NC(=O)CNC(=O)[C@@H](C)N(C)C(=O)[C@H](CC(=O)O)NC(=O)[C@H]([C@@H](C)c3c[nH]c4cccc(Cl)c34)NC(=O)[C@@H]3C[C@@H](N)CN3C(=O)CNC(=O)[C@H](Cc3ccc(C(=O)O)cc3)NC(=O)[C@H](Cc3c[nH]c4ccccc34)NC2=O)cc1"}, "B11": {"name": "SEQ ID NO: 147 (Example No. 147) (peptide)", "peptide": "cyclo([TyrEtNAc]W[Phe(4-COOH)]G[Pro(trans-4-NH2)][Trp(4-Cl)(βS-Me)]D[dNMeA]G[Bip(4'-COOH)]W[hSOMe][dA][hTyr])", "SMILES": "COCC[C@@H]1NC(=O)[C@H](Cc2c[nH]c3ccccc23)NC(=O)[C@H](Cc2ccc(-c3ccc(C(=O)O)cc3)cc2)NC(=O)CNC(=O)[C@@H](C)N(C)C(=O)[C@H](CC(=O)O)NC(=O)[C@H]([C@@H](C)c2c[nH]c3cccc(Cl)c23)NC(=O)[C@@H]2C[C@@H](N)CN2C(=O)CNC(=O)[C@H](Cc2ccc(C(=O)O)cc2)NC(=O)[C@H](Cc2c[nH]c3ccccc23)NC(=O)[C@H](Cc2ccc(OCCNC(C)=O)cc2)NC(=O)[C@H](CCc2ccc(O)cc2)NC(=O)[C@@H](C)NC1=O"}, "B12": {"name": "SEQ ID NO: 154 (Example No. 154) (peptide)", "peptide": "cyclo([TyrEtNAc]W[Phe(4-COOH)]G[Pro(trans-4-NH2)][Trp(βS-Me,4-F)]D[dNMeA]G[Bip(4'-COOH)][1Nal][Dab][dA][hTyr])", "SMILES": "CC(=O)NCCOc1ccc(C[C@@H]2NC(=O)[C@H](CCc3ccc(O)cc3)NC(=O)[C@@H](C)NC(=O)[C@H](CCN)NC(=O)[C@H](Cc3cccc4ccccc34)NC(=O)[C@H](Cc3ccc(-c4ccc(C(=O)O)cc4)cc3)NC(=O)CNC(=O)[C@@H](C)N(C)C(=O)[C@H](CC(=O)O)NC(=O)[C@H]([C@@H](C)c3c[nH]c4cccc(F)c34)NC(=O)[C@@H]3C[C@@H](N)CN3C(=O)CNC(=O)[C@H](Cc3ccc(C(=O)O)cc3)NC(=O)[C@H](Cc3c[nH]c4ccccc34)NC2=O)cc1"}}, "note": "*1 amine or outer side, *2 acyl side, *3 side chain or, on linkers, in order; H or OH if unused. [ ]: non-standard residue; d: D form. TyrEtNAc = L-tyrosine O-ethyl acetamide, (S)-3-(4-(2-acetamidoethoxy)phenyl)-2-aminopropanoic acid, CC(=O)NCCOc1ccc(C[C@H](N[*:1])C(=O)[*:2])cc1; hSOMe = (S)-2-amino-4-methoxybutanoic acid, COCC[C@H](N[*:1])C(=O)[*:2]; Trp(4-Cl)(βS-Me) = C[C@@H](c1c[nH]c2cccc(Cl)c12)[C@H](N)C(=O)O; Pro(trans-4-NH2) = O=C([C@@H]1C[C@@H](N[*:3])CN1[*:1])[*:2]; Trp(βS-Me,4-F) = C[C@@H](c1c[nH]c2cccc(F)c12)[C@H](N)C(=O)O; Bip(4'-COOH) = N[C@@H](Cc1ccc(-c2ccc(C(=O)O)cc2)cc1)C(=O)O; SerOMe = O-methyl-L-serine, COC[C@H](N[*:1])C(=O)[*:2]; Phe(4-COOH) = N[C@@H](Cc1ccc(C(=O)O)cc1)C(=O)O; 1Nal = N[C@@H](Cc1cccc2ccccc12)C(=O)O; hTyr = N[C@@H](CCc1ccc(O)cc1)C(=O)O; hPhe = N[C@@H](CCc1ccccc1)C(=O)O; Dap(Me2) = CN(C)C[C@H](N)C(=O)O; dDab = NCC[C@@H](N)C(=O)O; dNMeA = CN[C@H](C)C(=O)O; Dab = NCC[C@H](N)C(=O)O; Dap = NC[C@H](N)C(=O)O"}
{"biological_target": "Recombinant human IL-1β (BioLegend 579404) (human, UniProt P01584 117-269)", "assay": "cell-based or functional assay", "units": {"MRC5 IC50": "nM"}}
{"binder": "B1", "MRC5 IC50": 0.22}
{"binder": "B2", "MRC5 IC50": 0.06}
{"binder": "B3", "MRC5 IC50": 0.0483}
{"binder": "B4", "MRC5 IC50": 0.088}
{"binder": "B5", "MRC5 IC50": 0.81}
{"binder": "B6", "MRC5 IC50": 0.114}
{"binder": "B7", "MRC5 IC50": 0.0748}
{"binder": "B8", "MRC5 IC50": 0.0759}
{"binder": "B9", "MRC5 IC50": 0.0633}
{"binder": "B10", "MRC5 IC50": 0.0749}
{"binder": "B11", "MRC5 IC50": 0.0926}
{"binder": "B12", "MRC5 IC50": 0.196}
